B1: murine tumor endothelial marker 1 (TEM1) on cells (receptor)
chain: QVPWTPEPRAACGPSSCYALFPRRRTFLEAWRACRELGGNLATPRTPEEAQRVDSLVGVGPANGLLWIGLQRQARQCQPQRPLRGFIWTTGDQDTAFTNWAQPATEGPCPAQRCAALEASGEHRWLEGSCTLAVDGYLCQFGFEGACPALPLEVGQAGPAVYTTPFNLVSSEFEWLPFGSVAAVQCQAGRGASLLCVKQPSGGVGWSQTGPLCPGTGCGPDNGGCEHECVEEVDGAVSCRCSEGFRLAADGHSCEDPCAQAPCEQQCEPGGPQGYSCHCRLGFRPAEDDPHRCVDTDECQIAGVCQQMCVNYVGGFECYCSEGHELEADGISCSPAGAMGAQASQDLRDELLDDGEEGEDEEEPWEDFDGTWTEEQGILWLAPTHPPDFGLPYRPNFPQDGEPQRLHLEPTWPPPLSAPRGPYHSSVVSATRPMVISATRPTLPSAHKTSVISATRPPLSPVHPPAMAPATPPAVFSEHQIPKIKANYPDLPFGHKPGITSATHPARSPPYQPPIISTNYPQVFPPHQAPMSPDTHTITYLPPVPPHLDPGDTTSKAHQHPLLPDAPGIRTQAPQLSVSALQPPLPTNSRSSVHETPVPAANQPPAFPSSPLPPQRPTNQTSSISPTHSYSRAPLVPREGVPSPKSVPQLPSVPSTAAPTALAESGLAGQSQRDDRWLLVALLVPTCVFLVVLLALGIVYCTRCGSHAPNKRITDCYRWVTHAGNKSSTEPMPPRGSLTGVQTCRTSV
notes: also called mTEM1; murine TEM1
B2: human tumor endothelial marker 1 (TEM1) on cells (receptor)
chain: QDPWAAEPRAACGPSSCYALFPRRRTFLEAWRACRELGGDLATPRTPEEAQRVDSLVGAGPASRLLWIGLQRQARQCQLQRPLRGFTWTTGDQDTAFTNWAQPASGGPCPAQRCVALEASGEHRWLEGSCTLAVDGYLCQFGFEGACPALQDEAGQAGPAVYTTPFHLVSTEFEWLPFGSVAAVQCQAGRGASLLCVKQPEGGVGWSRAGPLCLGTGCSPDNGGCEHECVEEVDGHVSCRCTEGFRLAADGRSCEDPCAQAPCEQQCEPGGPQGYSCHCRLGFRPAEDDPHRCVDTDECQIAGVCQQMCVNYVGGFECYCSEGHELEADGISCSPAGAMGAQASQDLGDELLDDGEDEEDEDEAWKAFNGGWTEMPGILWMEPTQPPDFALAYRPSFPEDREPQIPYPEPTWPPPLSAPRVPYHSSVLSVTRPVVVSATHPTLPSAHQPPVIPATHPALSRDHQIPVIAANYPDLPSAYQPGILSVSHSAQPPAHQPPMISTKYPELFPAHQSPMFPDTRVAGTQTTTHLPGIPPNHAPLVTTLGAQLPPQAPDALVLRTQATQLPIIPTAQPSLTTTSRSPVSPAHQISVPAATQPAALPTLLPSQSPTNQTSPISPTHPHSKAPQIPREDGPSPKLALWLPSPAPTAAPTALGEAGLAEHSQRDDRWLLVALLVPTCVFLVVLLALGIVYCTRCGPHAPNKRITDCYRWVIHAGSKSPTEPMPPRGSLTGVQTCRTSV
notes: Endogenous on A673 and SK-N-AS cells, or full length hTEM1 ORF (NM_020404.3) in pTagGFP2-N transiently expressed in HEK293T cells; also called hTEM1; human TEM1
B3: anti-TEM1 scFv-Fc fusion 2B11 (Fc fusion)
VH: EVQLVETGGGLVKPGGSLRLSCAASGFTFNTYTMNWVRQAPGKGLEWVSSISSSSTYIYYADSVKGRFTISRDNAKNSLYLQMNSLRAEDTAVYYCAKSIVGATHDAFDIWGQGTMVTVSS
VL: DIQMTQSPPTLSASVGDRVTITCRASQSISRWLAWYQQKPGKAPNLLIYDASNLQSGVPSRFSGSGSGTEFTLTISSLQPDDFGTYYCQQYKNYSPTFGQGTKLEIK
notes: also called 2B11 scFv-Fc

For assay [1], the target named is T1, anti-TEM1 scFv-Fc fusion 3B6.
T1 construct: also called 3B6 scFv-Fc
Description: FACS, scFv-Fc 2 µg/ml on human and murine cell lines. The method, then: (§1) A673, human Ewing's sarcoma; SK-N-AS, human neuroblastoma; 2H11, murine tumor vascular endothelium; TC1, murine lung adenocarcinoma; HEK293-6E, human embryonic kidney; HT-1080, human fibrosarcoma; MDA-MB-231, human mammary carcinoma; MS1, murine pancreatic islet endothelium.
(§2) Adherent cells were detached using 10 mM EDTA, counted and resuspended in fresh, complete culture medium. All subsequent steps were performed on ice. […] After washing three times with FACS buffer, the secondary antibody, Alexa Fluor 647 AffiniPure Goat Anti-Human IgG (Jackson Immunoresearch, #109-605-098, 1:200 dilution) was added. Following incubation for 30 min the cells were washed again three times. Immediately before data acquisition, dead cells were stained with 4′,6-Diamidino-2-phenylindole (DAPI, 1:2000 dilution). Data was acquired using an LSR-II flow cytometer equipped with […] software (BD Biosciences). Data analysis and plotting were carried out using FlowJo v10 (FlowJo LLC).

Assay [2] shares this target. Description: FACS on cell lines. The method, then: as §1, §2
In assay [3] the target is B2. Nature of the assay: FACS on cell lines. The method, then: as §1, §2
The target in assay [4] is B1. Nature of the assay: FACS, scFv-Fc 2 µg/ml on human and murine cell lines. The method, then:
as §1, §2

Here are results for three molecules from patent US20220227872A1 (LUDWIG INSTITUTE FOR CANCER RESEARCH, published 2022).

T1 sequence (VH, as listed by the source, chain 1 of 2): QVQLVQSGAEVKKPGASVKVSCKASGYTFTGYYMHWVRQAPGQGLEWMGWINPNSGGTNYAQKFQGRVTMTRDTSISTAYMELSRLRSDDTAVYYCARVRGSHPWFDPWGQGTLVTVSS
T1 sequence (VL, as listed by the source, chain 2 of 2): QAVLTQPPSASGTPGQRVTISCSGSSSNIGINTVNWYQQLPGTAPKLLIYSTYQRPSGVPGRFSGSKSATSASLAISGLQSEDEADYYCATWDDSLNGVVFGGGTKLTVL

B1: the binding result in assay [1] is on record as “binds”.
On to B2, for which the binding result in assay [2] is on record as “binds”.
As to B3, the binding result in assay [3] and in assay [4] was “binds” throughout.
